For 1 molecule, Kd results are on record in patent publication US20250059282A1.

For one test, the target named is Human PD-L1-HIS (human) (UniProt Q9NZQ7). In words: ForteBio, IgG, monovalent.
In another test the target is Human PD-L2-HIS (human) (UniProt Q9BQ51). In words: ForteBio, IgG, monovalent.
A further test concerns the target Mouse PD-L1-Fc (mouse) (UniProt Q9EP73). The test is described as follows: ForteBio, IgG, avid.
For test [1], the target named is Cyno PD-L1-Fc (cynomolgus) (UniProt G7PSE7). In words: ForteBio, IgG, avid.
Sequence of Cyno PD-L1-Fc (cynomolgus) (G7PSE7 entry or part of it limits assumed): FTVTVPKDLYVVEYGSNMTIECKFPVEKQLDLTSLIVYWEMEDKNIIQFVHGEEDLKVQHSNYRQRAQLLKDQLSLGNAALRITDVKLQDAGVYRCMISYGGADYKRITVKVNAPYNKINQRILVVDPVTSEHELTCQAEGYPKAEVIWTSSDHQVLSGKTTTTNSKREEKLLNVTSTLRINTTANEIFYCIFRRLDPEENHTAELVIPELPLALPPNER
For test [2], the target named is Cyno PD-L2-Fc (cynomolgus). The test is described as follows: ForteBio, IgG, avid.
Sequence of Cyno PD-L2-Fc (cynomolgus) (chain, as listed by the source): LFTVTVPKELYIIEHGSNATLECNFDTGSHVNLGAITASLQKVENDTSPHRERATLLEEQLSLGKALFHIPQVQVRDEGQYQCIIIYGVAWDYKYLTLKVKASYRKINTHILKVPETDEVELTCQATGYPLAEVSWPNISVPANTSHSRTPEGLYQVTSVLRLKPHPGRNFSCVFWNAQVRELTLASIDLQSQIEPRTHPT
The next test has as its target Mouse PD-L2-Fc (mouse) (UniProt Q9WUL5). In words: ForteBio, IgG, avid.

Sequence of Human PD-L1-HIS (human) (Q9NZQ7 19-238 limits assumed): as the sequence (G7PSE7 entry or part of it limits assumed) above, with T33A, S34A, N62S, Q68R, R82Q, L173F, A185T, I192T, L215H counted along it
Sequence of Mouse PD-L1-Fc (mouse) (Q9EP73 19-239 limits assumed): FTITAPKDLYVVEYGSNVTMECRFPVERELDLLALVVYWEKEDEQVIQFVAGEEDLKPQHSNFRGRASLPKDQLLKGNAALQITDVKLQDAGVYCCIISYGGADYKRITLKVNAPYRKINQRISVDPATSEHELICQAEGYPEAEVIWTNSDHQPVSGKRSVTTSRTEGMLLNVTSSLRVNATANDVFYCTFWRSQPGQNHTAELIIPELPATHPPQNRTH
Sequence of Mouse PD-L2-Fc (mouse) (Q9WUL5 20-219 limits assumed): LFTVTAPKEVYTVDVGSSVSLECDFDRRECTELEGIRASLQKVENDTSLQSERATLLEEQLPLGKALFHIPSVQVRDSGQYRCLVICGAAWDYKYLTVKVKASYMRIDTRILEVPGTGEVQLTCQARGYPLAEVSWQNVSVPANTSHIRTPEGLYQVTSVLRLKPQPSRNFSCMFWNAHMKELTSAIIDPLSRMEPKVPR
Sequence of Human PD-L2-HIS (human) (Q9BQ51 20-220): as the sequence (chain, as listed by the source) above, with A19V, S62P, L67S, I139V, H166P, A178T, Q179H, I194M counted along it

B1: BiPDL3-54 (antibody, part only; not given: light chain variable domain, V domains shown, part only)
VH: QVQLQQWGAGLLKPSETLSLTCAVYGGSLSGYPWSWIRQPPGKGLEWIGETDVSGWTDYNPSLKSRVTISVDTSKNQFSLKLSSVTAADTAVYYCARDGRRMGTPSFDIWGQGTMVTVSS
With B1, the Kd with Human PD-L1-HIS (human) is 15.5 nM; with Human PD-L2-HIS (human), 2.2 nM; with Mouse PD-L1-Fc (mouse), 2.97 nM; in test [1] it was 0.442 nM; in test [2] it was 0.621 nM; with Mouse PD-L2-Fc (mouse), 0.694 nM.
